The target of test [1] is Toll-like receptor 4 on the surface of RAW 264.7 murine macrophages (mouse (endogenous in RAW 264.7)) (UniProt Q9QUK6).
Test [2] shares this target. This is another data set of the same source.
The target is the same in test [3]. The source holds these as a separate data set.

UniProt Q9QUK6, sequence (Q9QUK6 26-835): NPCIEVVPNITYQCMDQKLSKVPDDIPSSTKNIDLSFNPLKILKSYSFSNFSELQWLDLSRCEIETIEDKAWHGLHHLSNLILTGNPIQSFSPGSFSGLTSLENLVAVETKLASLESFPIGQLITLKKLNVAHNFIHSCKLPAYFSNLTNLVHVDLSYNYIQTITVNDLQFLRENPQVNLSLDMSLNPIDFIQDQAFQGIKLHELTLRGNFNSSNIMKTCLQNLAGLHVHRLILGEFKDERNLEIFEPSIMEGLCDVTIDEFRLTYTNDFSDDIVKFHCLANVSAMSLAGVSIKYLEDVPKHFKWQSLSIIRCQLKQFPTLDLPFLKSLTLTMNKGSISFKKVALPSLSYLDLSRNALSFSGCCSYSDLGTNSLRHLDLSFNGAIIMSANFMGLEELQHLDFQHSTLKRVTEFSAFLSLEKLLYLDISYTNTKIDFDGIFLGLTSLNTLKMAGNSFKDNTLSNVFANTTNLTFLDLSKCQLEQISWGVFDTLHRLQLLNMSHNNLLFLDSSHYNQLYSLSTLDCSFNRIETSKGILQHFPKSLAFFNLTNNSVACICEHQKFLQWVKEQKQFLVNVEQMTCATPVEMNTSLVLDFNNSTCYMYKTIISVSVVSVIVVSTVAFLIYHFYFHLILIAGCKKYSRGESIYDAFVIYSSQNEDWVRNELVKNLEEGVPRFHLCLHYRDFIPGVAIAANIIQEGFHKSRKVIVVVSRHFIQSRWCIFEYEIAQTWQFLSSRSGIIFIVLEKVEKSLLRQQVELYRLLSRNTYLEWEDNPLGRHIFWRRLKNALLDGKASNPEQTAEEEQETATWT

“recombinant Rv0297PGRS (PGRS domain of the Mycobacterium tuberculosis PE_PGRS protein Rv0297) (from UniProt Q6MX50 1-591) (domain or fragment)” registered a mortality of RAW 264.7 macrophages (alamarBlue assay, 48 h) with 2.5, 5, 10, 20 and 40 µg/ml rRv0297PGRS (12.42% to 36.07%); no significant change in RAW-ΔTLR4 cells in test [1] of 36.1%. In addition, in test [2], the total percentage of apoptotic RAW 264.7 cells (annexin V/PI staining) with 20 and 40 µg/ml rRv0297PGRS (43.83% and 58.37%) came to 58.4%. Moreover, in test [3], the fold increase of NO (Griess reagent) in RAW 264.7 cells stimulated with 20 µg/ml rRv0297PGRS for 30 h in contrast to unstimulated cells; unchanged in RAW-ΔTLR4 cells stood at 2 fold; the fold increment of ROS (CellROX green) in RAW 264.7 cells stimulated with rRv0297PGRS for 30 h compared to untreated cells (1.53 and 1.80); unchanged in RAW-ΔTLR4 cells was found to be 1.8 fold.
